The values below come from article PMC8249388.

Series [1] concerns the target T1, GST-Bicc1-KH (UniProt Q99MQ1).
T1 sequence (Q99MQ1 whole entry, looked up): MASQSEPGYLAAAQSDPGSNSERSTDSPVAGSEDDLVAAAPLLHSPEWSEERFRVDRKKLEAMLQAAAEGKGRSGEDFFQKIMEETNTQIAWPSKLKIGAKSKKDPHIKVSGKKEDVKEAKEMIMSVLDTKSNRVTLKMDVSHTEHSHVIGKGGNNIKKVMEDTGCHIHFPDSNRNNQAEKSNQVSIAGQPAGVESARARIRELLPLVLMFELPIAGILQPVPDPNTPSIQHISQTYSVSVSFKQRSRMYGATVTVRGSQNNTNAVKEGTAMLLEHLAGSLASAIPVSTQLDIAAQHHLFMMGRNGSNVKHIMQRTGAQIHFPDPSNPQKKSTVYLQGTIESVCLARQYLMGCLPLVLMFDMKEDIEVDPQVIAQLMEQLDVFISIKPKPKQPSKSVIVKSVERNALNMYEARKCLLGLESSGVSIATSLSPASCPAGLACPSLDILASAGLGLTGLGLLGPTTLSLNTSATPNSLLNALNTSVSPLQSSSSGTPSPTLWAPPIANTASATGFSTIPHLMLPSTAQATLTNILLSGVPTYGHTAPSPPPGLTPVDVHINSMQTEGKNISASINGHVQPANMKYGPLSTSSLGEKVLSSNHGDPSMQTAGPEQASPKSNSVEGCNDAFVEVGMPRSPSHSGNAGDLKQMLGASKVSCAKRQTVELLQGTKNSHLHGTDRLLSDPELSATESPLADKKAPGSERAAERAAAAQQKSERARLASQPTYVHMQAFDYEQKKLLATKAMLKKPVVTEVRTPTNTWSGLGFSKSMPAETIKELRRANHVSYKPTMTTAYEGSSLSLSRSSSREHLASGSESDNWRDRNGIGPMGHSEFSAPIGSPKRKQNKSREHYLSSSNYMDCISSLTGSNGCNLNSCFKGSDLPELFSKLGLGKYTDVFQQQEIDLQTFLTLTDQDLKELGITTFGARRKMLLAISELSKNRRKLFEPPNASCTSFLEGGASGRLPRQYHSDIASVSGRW
Briefly: competition EMSA. The note with it: 200 nM protein, 10 mM Tris-HCl pH 8, 100 mM KCl, 2.5 mM MgCl2, 2.5% glycerol, 1 mM DTT, 1 ug yeast tRNA in 20 uL, on ice 30 min, 1 pmol tagged RNA + 2.5 pmol DNA probe, 5% …. (A gel shift assay detects complexes by their altered migration in electrophoresis.)

In series [2] the target is T1, GST-Bicc1-KH. Kind of series: EMSA. To be noted: RNP1; apparent Kd; yeast tRNA present; 10 mM Tris-HCl pH 8, 100 mM KCl, 2.5 mM MgCl2, 2.5% glycerol, 1 mM DTT, 1 ug yeast tRNA in 20 uL, on ice 30 min; 1 pmol tagged RNA + 2.5 pmol DNA probe; 5% ….

What is called IC50 is the concentration needed to halve the response being measured. As for “GAAAAAGGUGACCUGAAUGAUGUGCAUCGGGUCAAGAGAGCAGAA [66-110 Mut1 (GACG to AAGG)]”, the IC50 in series [1] (vs labelled 66-110) was more than 1000 nM.

With “GAAAGACGUAAGCUGAAUGAUGUGCAUCGGGUCAAGAGAGCAGAA [66-110 Mut2 (UGAC to UAAG)]”, the IC50 in series [1] (vs labelled 66-110) was found to be 654 nM.

With “GAAAGACGUGACCUGAAUGAUGUGCAUCGGGUCAAGAGAGCAGAA [Dand5 3'-UTR 66-110 competitor]”, the IC50 in series [1] (vs labelled 66-110) was 203 nM.

On to “GAAAGACGUGACCUGAAUGAUGUGCAUCGGGUCAAGAGAGCAGAAUGUCUGGGCAACAGGCUCAGG / CTGAGCCTGTTGCCCAGAC [Dand5 3'-UTR 66-110 probe]”, for which the Kd in series [2] was 120 nM.

On to “GAAAGACGUGACCUGAAUGAUGUGCAUCGGGUCACGUCUUUCGAA [66-110 Stem+ (GACG masked in elongated stem)]”, for which the IC50 in series [1] (vs labelled 66-110) was more than 1000 nM.

On to “GCUGAGCAUCCUAGAGGAAUGCGCAGGACAUGAAUGAACCUUGGCAAGAAGCAGGAGACGCAAUAGAAAGACGUGACCUGAAUGAUGUGCAUCGGGUCAAGAGAGCAGAAUUGGACAGGGCCAGAAUACUAGACAUGGUCCCCCAGUCAUGGGUUUAGACCACUAAUAGUCGUAGAAUGUGGGGCUAGGGUAUAACUCAGUGGGAGAGGGCUUGCCUAGCAUGCA [Dand5 3'-UTR 1-225 competitor]”, for which the IC50 in series [1] (vs labelled 1-225) came out at 283 nM.

On to “GCUGAGCAUCCUAGAGGAAUGCGCAGGACAUGAAUGAACCUUGGCAAGAAGCAGGAGACGCAAUAGAAAGACGUGACCUGAAUGAUGUGCAUCGGGUCAAGAGAGCAGAAUUGGACAGGGCCAGAAUACUAGACAUGGUCCCCCAGUCAUGGGUUUAGACCACUAAUAGUCGUAGAAUGUGGGGCUAGGGUAUAACUCAGUGGGAGAGGGCUUGCCUAGCAUGCAUGUCUGGGCAACAGGCUCAGG / CTGAGCCTGTTGCCCAGAC [Dand5 3'-UTR 1-225 probe]”, for which the Kd in series [2] stood at 233 nM.

On to “UGAACCUUGGCAAGAAGCAGGAGACGCAAUAGAAAGACGUGACCUGAAUGAUGUGCAUCGGGUCAAGAGAGCAGAAUUGGACAGGGCCAGAAUACUAGACAUGGUCCCCCAGUCAUGGGUUUA [Dand5 3'-UTR 35-157 competitor]”, for which the IC50 in series [1] (vs labelled 35-157) amounted to 191 nM.

As to “UGAACCUUGGCAAGAAGCAGGAGACGCAAUAGAAAGACGUGACCUGAAUGAUGUGCAUCGGGUCAAGAGAGCAGAAUUGGACAGGGCCAGAAUACUAGACAUGGUCCCCCAGUCAUGGGUUUAUGUCUGGGCAACAGGCUCAGG / CTGAGCCTGTTGCCCAGAC [Dand5 3'-UTR 35-157 probe]”, the Kd in series [2] came out at 120 nM.

In the case of “UGAAGACGUGACUUCUAUUCGUAUGUGAUAUGUGGAGGUUAAAAA [226-270 8-mer (GCCCUGGG to GACGUGAC)]”, the IC50 in series [1] (vs labelled 66-110) was found to be 392 nM.

As to “UGAAGCCCUGGGUUCUAUUCGUAUGUGAUAUGUGGAGGUUAAAAAAAGGUGAAAAUUAGCUAUAGUGUAUGAUUAGCCCUGUGUGAGAGGGAACAUUCAUGCCACAAUCACUAACUCACGUCCUCCUCAGGAAUCCUCAGCAGUCCCGCAAGGUAGAAUUUCACCAUGGGUCAUUUUACAGAUGAGGAAACCGAAGCUAU [Dand5 3'-UTR 226-425 (distal) competitor]”, the IC50 in series [1] (vs labelled 1-225) was more than 1000 nM.
